Test results reported in the supplement of paper PMC12042874.
± gives the uncertainty stated by the source.

assay: amyloid nucleation score (Sup35N fusion, yeast selection) (log enrichment); library NNK1; higher = more nucleation; inactive = no reads after selection
Outline: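 Sup35N fusions to peptides of 20 random codons were expressed in psi-negative yeast, induced 24 hours with 100 μM copper sulfate, and grown 7 days at 30°C on medium lacking adenine and uracil. Input and output plasmid inserts were sequenced by Illumina. The nucleation score is the DiMSum log enrichment of output over input reads, centred on the mode score of non-aggregating sequences. Sequences with under 100 input reads were excluded.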

Row | Substance | amyloid nucleation score
1 | NWSEWGSRIHFKCWIEMLLR | 0.174 ± 0.55
2 | NYAAPVSCRGLADEGRSRTD | -0.4 ± 0.49
3 | NYETPGRFDKSVSTGEAFQS | -0.868 ± 0.55
4 | NYIVLFSSRDVCTHNMYKTV | 0.342 ± 0.71
5 | NYLGS | -0.481 ± 0.33
6 | NYMWSQPLLYFECGRDQWLA | 2.92 ± 0.11
7 | NYSDLKRGHRLDSADGWDGI | -0.613 ± 1.1
8 | NYSDYMWTRLANLA | -0.2 ± 0.72
9 | NYVPIWSGA | inactive
10 | PALNRFLGTERDYDRYAGIA | -0.8 ± 0.49
11 | PAPPAQHIYVQRVYSFCQRG | -0.161 ± 0.9
12 | PATMDLIVVPWITVLKEIN | -0.451 ± 0.89
13 | PCDSICALFALSKHQVGGGW | 0.324 ± 0.55
14 | PCFYSSGDVVMNRGV | -0.507 ± 0.26
15 | PCGEKD | 0.559 ± 0.9
16 | PCLNRLVV | 0.386 ± 0.5
17 | PCLVGIDMVTMVAESLCGSG | -0.958 ± 1.3
18 | PDCLPPWSRRLLGNRVAIGL | 1.01 ± 0.57
19 | PDRDYFLFFTLHCVCSSFAE | inactive
20 | PDSLFPLCFLRLWLISSIVR | 1.49 ± 0.84
21 | PECQSGCMV | -0.163 ± 0.41
22 | PFAGNHTMWKVPTWGKSWKG | -0.398 ± 0.7

Row | Substance | amyloid nucleation score
23 | PFCRSRHAGHSRSLQVEKFM | -0.004 ± 0.29
24 | PFIDNRFKLFRSDGTVRWVI | inactive
25 | PFNGSLFYYVSWVKTNYGYY | 0.225 ± 0.93
26 | PFVYGLCESFPFGCQYGWGC | inactive
27 | PFYNSQ | -0.371 ± 0.41
28 | PGGSIRGFSRLSKLHWDRGE | 0.252 ± 0.4
29 | PGTGPVCQNGDVAF | -0.948 ± 1.7
30 | PGTSARRIDTKDVPYPFIPS | 1.16 ± 0.51
31 | PHSSFPESSCKGSGSVSWAE | -0.172 ± 0.74
32 | PIDGLPGASFGLGFQCGVGM | 0.527 ± 0.76
33 | PILMFTVCMSDSQTVLNFCS | 6.56 ± 0.047
34 | PINLLVLIAGNFYWLWTFGQ | 2.84 ± 0.15
35 | PIRPWAHYGMANWVQKAF | -0.763 ± 0.52
36 | PIVMCFFGKV | -0.201 ± 0.41
37 | PKNGGQTMAYK | -0.665 ± 0.6
38 | PLAHLSRLEESYWPSQTHPS | 0.091 ± 0.54
39 | PLDHLHLSKWCTSEKDLVV | 0.766 ± 0.38
40 | PLEVWNRGVGPIGCVCRGLK | 1.29 ± 0.57
41 | PLGGLGYV | 0.543 ± 0.73
42 | PLHWS | 0.416 ± 0.3
43 | PLLQKSWIRALSFFVNHTS | 0.126 ± 0.51
44 | PLMWS | 0.251 ± 0.29

Row | Substance | amyloid nucleation score
45 | PLRASRTMTSGKLQPNLRRK | 0.035 ± 0.76
46 | PLSVNLKYVYNLVVDLFGLP | 2.61 ± 0.19
47 | PLVGWSRYSGAIPTSVMFLA | 4.21 ± 0.071
48 | PLWLCGGFQQWASGCRSVGL | -1.06 ± 0.49
49 | PMAVRLSYCCNRIYVLY | 4.47 ± 0.097
50 | PMQNSTPLFYSNAWSE | -0.096 ± 1.1
51 | PMTVSNEFAPSILLSRALFW | 3.99 ± 0.14
52 | PMYLSSVVCFSKRHMPANRG | -0.138 ± 0.52
53 | PNMGREYKIGTGHYYEQFFH | -0.082 ± 0.17
54 | PNRRCCPMVGFIWLYRVL | 0.836 ± 0.85
55 | PNVFFFLISMIFSDFLVGSG | 0.192 ± 1.2
56 | PPETRTPVINRSLSIEFDPK | -0.022 ± 0.68
57 | PPLAYWVYPMVRTLFEGRVP | 0.754 ± 0.45
58 | PPWPVNSDDPGHYETSSNFS | 1.29 ± 0.73
59 | PQSHQKTRTFLFMRSTSSMW | -0.847 ± 0.52
60 | PRGLP | 0.694 ± 0.9
61 | PRLARMLLHDGAEYDCELSC | -0.963 ± 1.2
62 | PRNQNMT | 0.992 ± 1
63 | PRRMKT | 0.15 ± 0.33
64 | PRRQETWANEGHGM | 0.426 ± 0.93
65 | PRTNSNMIKCYIFDNAWNQL | 6.234 ± 0.055
66 | PSFMMFKSYTPQDFGMH | -0.318 ± 0.99

Row | Substance | amyloid nucleation score
67 | PSHLRYAAH | -0.038 ± 0.54
68 | PSIEEEFSWVPAVFFFTWDM | -0.706 ± 1.2
69 | PSIHTFCTAL | 0.318 ± 0.33
70 | PSKSVCKPCRWSGSWWGER | 0.073 ± 1.6
71 | PSLVQNGSQSTPVEDYIIEY | -0.618 ± 0.65
72 | PSSIWNAMFYGYNCMYLLKT | -0.392 ± 0.34
73 | PSWWVMEFTWIPQNGGLLSL | 6.64 ± 0.082
74 | PTCLSWGGVMRRDL | 0.341 ± 0.48
75 | PTCQGITWMPRQLWLMGGAD | 0.507 ± 0.6
76 | PTFNSAQTRSISYIKTDYLE | inactive
77 | PTLMLAGG | -0.33 ± 0.46
78 | PTMSLIDGIVGKLMDSRVGT | -0.11 ± 0.32
79 | PTTEWKVVRT | 0.808 ± 0.57
80 | PTTYNYSCVGIVSFDFSESI | 5.293 ± 0.052
81 | PVCVIRRGMAFSAFGWVPLE | 0.188 ± 0.7
82 | PVFGETGDY | -0.393 ± 0.4
83 | PVGGHMVRLSSMSNSLAFKV | -0.563 ± 0.68
84 | PVKNRYTHR | inactive
85 | PVLRAWYGRLFCRYSWLWQC | 0.274 ± 0.46
86 | PVSSLNYLVDT | 0.395 ± 0.62
